According to patent US7037497:

How the values were obtained:
[1] = target: HIV-1JR-FL envelope glycoprotein gp120/gp41 on HeLa-EnvJR-FL+ cells (HIV-1 JR-FL); experiment: cell-based or functional assay
[2] = target: CCR5 chemokine receptor on the cell surface (UniProt P51681)
[3] = target: CCR5 chemokine receptor on the cell surface (UniProt P51681); experiment: cell-based or functional assay
[4] = target: CCR5 chemokine receptor on the cell surface (UniProt P51681); experiment: flow cytometry on PHA/IL-2-stimulated PBMC
[5] = target: CCR5 chemokine receptor on the cell surface (UniProt P51681); experiment: flow cytometry on L1.2-CCR5+ cells, PE anti-mouse IgG

Chain of UniProt P51681 (P51681 whole entry): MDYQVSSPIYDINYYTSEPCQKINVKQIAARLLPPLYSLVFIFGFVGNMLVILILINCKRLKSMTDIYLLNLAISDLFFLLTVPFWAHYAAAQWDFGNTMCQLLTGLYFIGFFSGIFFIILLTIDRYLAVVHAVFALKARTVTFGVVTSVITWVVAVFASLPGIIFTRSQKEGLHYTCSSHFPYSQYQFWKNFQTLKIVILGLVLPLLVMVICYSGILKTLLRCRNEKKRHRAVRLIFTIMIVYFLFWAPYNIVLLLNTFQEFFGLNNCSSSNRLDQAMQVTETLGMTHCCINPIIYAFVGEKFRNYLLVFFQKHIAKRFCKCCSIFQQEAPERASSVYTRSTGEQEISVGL

Substance | K (= IC50) of the median effect fit, inhibition of env-mediated membrane fusion (RET assay) [1] [mg/L] | IC50 [2] [mg/L] | IC50, inhibition of JR-FL entry (luciferase reporter virus, U87MG-CD4+CCR5+ cells) [3] [mg/L] | IC50, inhibition of cell-cell fusion (RET assay, PM1 and HeLa-EnvJR-FL+ cells) [3] [mg/L] | K (= IC50) of the median effect fit, inhibition of cell-cell fusion (RET assay) [3] [mg/L] | % of cells stained [4] | % of cells stained (% of L1.2-CCR5+ cells) [5] | IC50, inhibition of RANTES-induced calcium influx in L1.2-CCR5+ cells [3] [mg/L] | IC50 of calcium influx inhibition, PA14 against 2D7 [3] [fold] | fold difference of m.f.i. against PA9 [4] [fold]
CD4-IgG2 (from UniProt P01730 26-204; P01730 26-204) (Fc fusion) | 0.31 | – | – | – | – | – | – | – | – | –
T-20 peptide | 0.017 | – | – | – | – | – | – | – | – | –
anti-CCR5 mAb 2D7 (antibody) | – | 1.38 | 0.026 | 1.6 | 0.36 | > 20 % of PBMC | > 90 | – | – | –
anti-CCR5 monoclonal antibody PA14 (ATCC No. HB-12610) | – | 1.58 | 0.024 | 1.7 | – | > 20 % of PBMC | > 90 | 50 | 8 | 7
